Source: ChEMBL document CHEMBL1151808, “Substrate promiscuity of the cyclic dipeptide prenyltransferases from Aspergillus fumigatus ( section sign)” (J Nat Prod, 2009)

How the values were obtained:
[1] = substrate: O=C1N[C@@H](Cc2c[nH]c3ccccc23)C(=O)N2CCC[C@@H]12; test: (§1) Activity at Aspergillus fumigatus FtmPT1 by HPLC analysis
[2] = substrate: N[C@@H](Cc1c[nH]c2ccccc12)C(=O)O; test: as §1

B1: Tryprostatin B synthase ftmPT1 (Aspergillus fumigatus), Q4WAW7 (protein)
chain: MPPAPPDQKPCHQLQPAPYRALSESILFGSVDEERWWHSTAPILSRLLISSNYDVDVQYKYLSLYRHLVLPALGPYPQRDPETGIIATQWRSGMVLTGLPIEFSNNVARALIRIGVDPVTADSGTAQDPFNTTRPKVYLETAARLLPGVDLTRFYEFETELVITKAEEAVLQANPDLFRSPWKSQILTAMDLQKSGTVLVKAYFYPQPKSAVTGRSTEDLLVNAIRKVDREGRFETQLANLQRYIERRRRGLHVPGVTADKPPATAADKAFDACSFFPHFLSTDLVEPGKSRVKFYASERHVNLQMVEDIWTFGGLRRDPDALRGLELLRHFWADIQMREGYYTMPRGFCELGKSSAGFEAPMMFHFHLDGSQSPFPDPQMYVCVFGMNSRKLVEGLTTFYRRVGWEEMASHYQGNFLANYPDEDFEKAAHLCAYVSFAYKNGGAYVTLYNHSFNPVGDVSFPN
- Km [1]: 55 µM
- kcat [1]: 5.57 s⁻¹
- Km [2]: 820 µM
- kcat [2]: 0.12 s⁻¹
